Among the data in the supplement of paper PMC9732359 are protein stability index values, retold here.

A short description of the data set: protein stability index of a GFP-peptide fusion (yeast GPS) (PSI 1-4); higher = more stable; sorted into four equal gates, so the index is relative within each strain. In a few lines:
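Peptides tiling yeast proteins in 17-residue segments were fused downstream of GFP, with Cherry expressed from the same plasmid. As a pooled library in yeast, mid-log cultures grown in leucine-free medium were sorted into four equal gates by GFP/Cherry fluorescence ratio. Gate plasmids were PCR-amplified and Illumina-sequenced, and barcodes linked reads to strains. Each peptide received a protein stability index equal to the sum of each gate's read frequency times its gate number.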

± gives the uncertainty stated by the source.

Sequence FVEEQNVYVLPKNLLKK [PRP8] came in with a protein stability index (doa10∆) of 2.54 ± 0.056, a protein stability index (pdr5∆) of 2.5 ± 0.045, a protein stability index (san1∆) of 2.54 ± 0.07 and a protein stability index (ubr1∆) of 2.87 ± 0.059.

Regarding PLVAHLGLYVGVDDQIL [YJL039C/NUP192], the protein stability index runs as follows: (doa10∆) 2.42 ± 0.074; (pdr5∆) 2.85 ± 0.12; (san1∆) 2.26 ± 0.11; (ubr1∆) 1.48 ± 0.13.

With SLNYKFTTNKSKDVSRL [SRP21], the protein stability index (doa10∆) worked out at 3.13 ± 0.12, the protein stability index (pdr5∆) was 3.04 ± 0.088, the protein stability index (san1∆) is 3.08 ± 0.081 and the protein stability index (ubr1∆) was 3.14 ± 0.072.

For INIQKKLEPKEIVRDIL [SIR4], the protein stability index came to 3.05 ± 0.085 (doa10∆), 3.19 ± 0.12 (pdr5∆), 2.85 ± 0.12 (san1∆) and 2.86 ± 0.11 (ubr1∆).

Take MAQTATQQQPGAPGANA [SRP54]: the protein stability index turned out to be 3.31 ± 0.065 (doa10∆), 3.22 ± 0.088 (pdr5∆), 3.33 ± 0.054 (san1∆) and 3.21 ± 0.05 (ubr1∆).

In turn, FTNGVLAVTNLLIISCI [YML031W/NDC1] gave a protein stability index (doa10∆) of 1.89 ± 0.18, a protein stability index (pdr5∆) of 1.85 ± 0.17 and a protein stability index (san1∆) of 1.79 ± 0.14.

In the case of NIIESIANFSRAGKYEL [YJR042W/NUP85], the protein stability index by setting is: (doa10∆) 2.86 ± 0.087; (pdr5∆) 2.96 ± 0.086; (san1∆) 2.87 ± 0.051; (ubr1∆) 2.44 ± 0.042.

Take QLQGPQWMNEMVERWAN [SOH1]: the protein stability index reads like this: (doa10∆) 3.28 ± 0.11; (pdr5∆) 3.18 ± 0.091; (san1∆) 2.93 ± 0.099; (ubr1∆) 3.06 ± 0.084.

MAKVEVNLAAIPLGKNV [RIP1] gave a protein stability index (doa10∆) of 3.33 ± 0.3.

For LLEFFELVFSKGVYLIL [YML103C/NUP188], the protein stability index (doa10∆) is 2.13 ± 0.087, the protein stability index (pdr5∆) came to 2.4 ± 0.093, the protein stability index (san1∆) was found to be 1.97 ± 0.093 and the protein stability index (ubr1∆) came to 2.26 ± 0.076.

Regarding SSVKTCFKPMSLTSKRL [RIP1], the protein stability index is, setting by setting: (doa10∆) 3.02 ± 0.063; (pdr5∆) 3.04 ± 0.063; (san1∆) 2.85 ± 0.047; (ubr1∆) 2.62 ± 0.033.

As to KTWEKVTLDFGNIFADL [SMC2], the protein stability index worked out at 2.81 ± 0.099 (doa10∆), 2.92 ± 0.12 (pdr5∆), 3.39 ± 0.1 (san1∆) and 3.12 ± 0.13 (ubr1∆).

As to QPKRNLSRYVKWPEYVR [RPL8A], the protein stability index reads like this: (doa10∆) 2.87 ± 0.096; (pdr5∆) 2.98 ± 0.046; (san1∆) 3.06 ± 0.06; (ubr1∆) 2.99 ± 0.066.

Consider NVAHRIKEDIKKQPSIL [SNF2], for which the protein stability index runs as follows: (doa10∆) 2.9 ± 0.15; (pdr5∆) 3.21 ± 0.14; (san1∆) 3.05 ± 0.097; (ubr1∆) 3.19 ± 0.12.

Take SEQKMKEDADLKRMEIL [SIR4]: the protein stability index reads like this: (doa10∆) 2.99 ± 0.066; (pdr5∆) 3.34 ± 0.11; (san1∆) 3.49 ± 0.059; (ubr1∆) 3.28 ± 0.073.

On to SCHGHFGHLKLALPVFH [RPO31], for which the protein stability index by setting is: (doa10∆) 1.44 ± 0.054; (pdr5∆) 1.4 ± 0.057; (san1∆) 1.23 ± 0.1; (ubr1∆) 1.18 ± 0.035.

As for VAAASKILSNLVYQYKG [PRE2], the protein stability index (doa10∆) worked out at 2.62 ± 0.088, the protein stability index (pdr5∆) amounted to 2.5 ± 0.056, the protein stability index (san1∆) worked out at 2.54 ± 0.078 and the protein stability index (ubr1∆) came out at 2.49 ± 0.051.

On to INAQGEEIVVVASADYE [PRP8], for which the protein stability index reads like this: (doa10∆) 2.91 ± 0.09; (pdr5∆) 3.33 ± 0.096; (san1∆) 2.78 ± 0.07; (ubr1∆) 2.73 ± 0.04.

Regarding STDKLVQCHGSFATATC [SIR2], the protein stability index reads like this: (doa10∆) 2.72 ± 0.066; (pdr5∆) 2.67 ± 0.048; (san1∆) 2.48 ± 0.063; (ubr1∆) 2.76 ± 0.037.

LSATQFTQPALTLMEKA [FAS1]: the protein stability index runs as follows: (doa10∆) 2.37 ± 0.073; (pdr5∆) 2.56 ± 0.058; (san1∆) 2.7 ± 0.049; (ubr1∆) 2.58 ± 0.054.

As to LTVFYAIKKFKTEKDGV [SSN3], the protein stability index runs as follows: (doa10∆) 2.17 ± 0.12; (pdr5∆) 1.74 ± 0.057; (san1∆) 2.42 ± 0.061; (ubr1∆) 1.97 ± 0.085.

As to ADLSSSEEEEDEEENGS [SSN2], the protein stability index was 3.36 ± 0.087 (doa10∆), 3.51 ± 0.12 (pdr5∆), 3.59 ± 0.084 (san1∆) and 3.29 ± 0.064 (ubr1∆).

Regarding PPGYEIEELDNPMVPSS [PRP8], the protein stability index came to 2.42 ± 0.1 (doa10∆), 2.65 ± 0.066 (pdr5∆), 3.26 ± 0.085 (san1∆) and 2.82 ± 0.049 (ubr1∆).

KGEVVLVNIRTQTSKEQ [ITC1]: the protein stability index (doa10∆) stood at 2.4 ± 0.075, the protein stability index (pdr5∆) amounted to 2.5 ± 0.15, the protein stability index (san1∆) worked out at 2.58 ± 0.1 and the protein stability index (ubr1∆) worked out at 2.56 ± 0.095.

For VPIKSSKSGRIFALVFS [RPN13], the protein stability index reads like this: (doa10∆) 2.57 ± 0.14; (pdr5∆) 2.41 ± 0.091; (san1∆) 2.41 ± 0.096; (ubr1∆) 2.63 ± 0.1.

As to GTLDKNSQTVSGTPITQ [SNF2], the protein stability index is, setting by setting: (doa10∆) 2.83 ± 0.055; (pdr5∆) 2.71 ± 0.055; (san1∆) 2.69 ± 0.052; (ubr1∆) 2.65 ± 0.044.

As for ESQPKQTGTRRNSKLLN [MCD1], the protein stability index turned out to be 3.29 ± 0.099 (doa10∆), 3.16 ± 0.12 (pdr5∆), 3.19 ± 0.079 (san1∆) and 3.12 ± 0.076 (ubr1∆).

In the case of FKSVLPIVLLNTLRKCY [UBP6], the protein stability index by setting is: (doa10∆) 1.26 ± 0.11; (pdr5∆) 1.23 ± 0.071; (san1∆) 1.12 ± 0.16; (ubr1∆) 1.18 ± 0.12.

For the sequence ESVIEQIVKYARKGLTP [RPS13], the protein stability index is, setting by setting: (doa10∆) 3.13 ± 0.058; (pdr5∆) 2.94 ± 0.073; (san1∆) 2.76 ± 0.052; (ubr1∆) 2.81 ± 0.044.

Turning to YEKAQKDLENAQVEMKS [SMC1], the protein stability index was determined as 3.11 ± 0.11 (doa10∆), 3.29 ± 0.084 (pdr5∆), 3.31 ± 0.052 (san1∆) and 3.3 ± 0.08 (ubr1∆).

For IKESSKKIKGKSIQDIV [SRP21], the protein stability index (doa10∆) came to 3.26 ± 0.077, the protein stability index (pdr5∆) was determined as 3.31 ± 0.092, the protein stability index (san1∆) came to 3.33 ± 0.046 and the protein stability index (ubr1∆) came to 3.14 ± 0.12.

As for TNWIIYPLWVMAKQLIR [CSN12], the protein stability index reads like this: (doa10∆) 1.39 ± 0.11; (pdr5∆) 1.2 ± 0.13; (ubr1∆) 1.24 ± 0.11.

Turning to GGLQKGKLVVSQEMVPR [SIR3], the protein stability index by setting is: (doa10∆) 3.03 ± 0.07; (pdr5∆) 2.83 ± 0.13; (san1∆) 2.32 ± 0.076; (ubr1∆) 3.23 ± 0.12.

For EAVELPLVQADLYEQIG [RPT3], the protein stability index by setting is: (doa10∆) 3.17 ± 0.15; (pdr5∆) 2.81 ± 0.24; (san1∆) 3.39 ± 0.12; (ubr1∆) 2.93 ± 0.17.

As to LLSIPISCPLIGVIQLA [FAS1], the protein stability index was 1.23 ± 0.07 (doa10∆), 1.27 ± 0.068 (pdr5∆), 1.23 ± 0.12 (san1∆) and 1.08 ± 0.064 (ubr1∆).

Take PNSGTATTGGFGANQAT [YGR119C/NUP57]: the protein stability index runs as follows: (doa10∆) 2.12 ± 0.084; (pdr5∆) 2.33 ± 0.07; (san1∆) 2.12 ± 0.091; (ubr1∆) 2.14 ± 0.067.

Regarding RMPIMLRSNKCILYDAD [RET1], the protein stability index worked out at 1.23 ± 0.15 (doa10∆), 1.41 ± 0.11 (pdr5∆), 1.25 ± 0.25 (san1∆) and 1.77 ± 0.095 (ubr1∆).

Consider ENGLQLSDNAKTLHSQM [RPC34], for which the protein stability index is, setting by setting: (doa10∆) 3.11 ± 0.18; (pdr5∆) 3.27 ± 0.096; (san1∆) 3.27 ± 0.07; (ubr1∆) 3.13 ± 0.053.
